Laboratory results from article PMC10397247.

Experiments:
Assay in all cases: two-hybrid library CCNG1;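 also: natural log of median RNA to DNA barcode read ratio; higher means stronger binding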
4H1446-bH = target: T1, 4H1446-bH
T1 chain: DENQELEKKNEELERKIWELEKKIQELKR

4H1369-bH = target: T2, 4H1369-bH
T2 chain: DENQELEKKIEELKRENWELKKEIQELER

4H953-bH = target: T3, 4H953-bH
T3 chain: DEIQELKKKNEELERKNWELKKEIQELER

4H3843-bH = target: T4, 4H3843-bH
T4 chain: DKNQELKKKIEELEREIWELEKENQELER

4H2576-bH = target: T5, 4H2576-bH
T5 chain: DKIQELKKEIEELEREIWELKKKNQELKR

4H687-bH = target: T6, 4H687-bH
T6 chain: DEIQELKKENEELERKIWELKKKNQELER

4H967-bH = target: T7, 4H967-bH
T7 chain: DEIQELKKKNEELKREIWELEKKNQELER

4H3606-bH = target: T8, 4H3606-bH
T8 chain: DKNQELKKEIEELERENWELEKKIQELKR

4H3782-bH = target: T9, 4H3782-bH
T9 chain: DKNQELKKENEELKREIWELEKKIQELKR

4H3189-bH = target: T10, 4H3189-bH
T10 chain: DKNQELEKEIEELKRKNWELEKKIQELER

4H462-bH = target: T11, 4H462-bH
T11 chain: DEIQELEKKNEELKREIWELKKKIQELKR

4H918-bH = target: T12, 4H918-bH
T12 chain: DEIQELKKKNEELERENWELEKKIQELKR

4H331-bH = target: T13, 4H331-bH
T13 chain: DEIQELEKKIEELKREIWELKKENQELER

4H568-bH = target: T14, 4H568-bH
T14 chain: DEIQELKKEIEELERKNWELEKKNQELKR

4H72-bH = target: T15, 4H72-bH
T15 chain: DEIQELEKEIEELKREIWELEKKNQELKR

4H2697-bH = target: T16, 4H2697-bH
T16 chain: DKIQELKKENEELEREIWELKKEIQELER

4H607-bH = target: T17, 4H607-bH
T17 chain: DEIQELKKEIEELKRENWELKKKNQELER

4H1845-bH = target: T18, 4H1845-bH
T18 chain: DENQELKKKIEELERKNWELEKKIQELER

4H797-bH = target: T19, 4H797-bH
T19 chain: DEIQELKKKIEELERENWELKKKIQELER

4H883-bH = target: T20, 4H883-bH
T20 chain: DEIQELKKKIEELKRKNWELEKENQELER

4H370-bH = target: T21, 4H370-bH
T21 chain: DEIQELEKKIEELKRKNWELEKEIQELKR

O9-bN = target: T22, O9-bN
T22 chain: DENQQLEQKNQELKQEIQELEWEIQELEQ

4H2610-bH = target: T23, 4H2610-bH
T23 chain: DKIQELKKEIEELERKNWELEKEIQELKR

4H4001-bH = target: T24, 4H4001-bH
T24 chain: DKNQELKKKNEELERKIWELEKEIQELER

4H2667-bH = target: T25, 4H2667-bH
T25 chain: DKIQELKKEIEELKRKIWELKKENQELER

P5A-bH = target: T26, P5A-bH
T26 chain: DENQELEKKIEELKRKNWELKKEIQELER

P6A-bH = target: T27, P6A-bH
T27 chain: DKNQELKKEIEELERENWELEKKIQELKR

P9A-bH = target: T28, P9A-bH
T28 chain: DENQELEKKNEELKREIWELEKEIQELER

P4A-bH = target: T29, P4A-bH
T29 chain: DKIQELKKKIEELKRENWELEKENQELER

P8A-bH = target: T30, P8A-bH
T30 chain: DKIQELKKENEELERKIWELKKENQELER

P3A-bH = target: T31, P3A-bH
T31 chain: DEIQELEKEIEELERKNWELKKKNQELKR

P7A-bH = target: T32, P7A-bH
T32 chain: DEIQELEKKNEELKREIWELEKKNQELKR

P12A-bH = target: T33, P12A-bH
T33 chain: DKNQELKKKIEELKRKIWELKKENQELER

P2A-bH = target: T34, P2A-bH
T34 chain: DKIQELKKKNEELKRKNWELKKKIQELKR

P1A-bH = target: T35, P1A-bH
T35 chain: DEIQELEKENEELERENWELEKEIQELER

P6A-bN = target: T36, P6A-bN
T36 chain: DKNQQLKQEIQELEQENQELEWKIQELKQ

P1A-bN = target: T37, P1A-bN
T37 chain: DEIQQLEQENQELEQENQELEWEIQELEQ

P7A-bN = target: T38, P7A-bN
T38 chain: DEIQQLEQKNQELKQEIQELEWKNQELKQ

P5A-bN = target: T39, P5A-bN
T39 chain: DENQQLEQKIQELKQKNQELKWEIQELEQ

P11A-bN = target: T40, P11A-bN
T40 chain: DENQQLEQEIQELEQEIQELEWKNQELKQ

P12A-bN = target: T41, P12A-bN
T41 chain: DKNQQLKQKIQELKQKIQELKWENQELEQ

P2A-bN = target: T42, P2A-bN
T42 chain: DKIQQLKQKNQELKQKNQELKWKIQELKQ

P8A-bN = target: T43, P8A-bN
T43 chain: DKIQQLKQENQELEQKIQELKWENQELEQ

P4A-bN = target: T44, P4A-bN
T44 chain: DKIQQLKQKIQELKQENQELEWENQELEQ

P3A-bN = target: T45, P3A-bN
T45 chain: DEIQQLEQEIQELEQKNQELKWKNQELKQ

P9A-bN = target: T46, P9A-bN
T46 chain: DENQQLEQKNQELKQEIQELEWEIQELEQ

4H918-bA = target: T47, 4H918-bA
T47 chain: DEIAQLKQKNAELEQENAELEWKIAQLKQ

4H967-bA = target: T48, 4H967-bA
T48 chain: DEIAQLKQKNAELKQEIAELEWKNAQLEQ

4H953-bA = target: T49, 4H953-bA
T49 chain: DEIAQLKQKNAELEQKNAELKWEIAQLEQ

4H908-bA = target: T50, 4H908-bA
T50 chain: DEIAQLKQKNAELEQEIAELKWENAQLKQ

## DENQELEKKIEELKRENWELKKEIQELER [4H1369-bH]
4H1446-bH
  interaction score: -1.19
4H1369-bH
  interaction score: -0.455
4H953-bH
  interaction score: -0.636
4H3843-bH
  interaction score: -0.198
4H2576-bH
  interaction score: -0.848
4H687-bH
  interaction score: 0.994
4H967-bH
  interaction score: -0.723
4H3606-bH
  interaction score: 1.14
4H3782-bH
  interaction score: -0.489
4H3189-bH
  interaction score: -0.572
4H462-bH
  interaction score: -1.88
4H918-bH
  interaction score: -1.26
4H331-bH
  interaction score: -0.491
4H568-bH
  interaction score: -1.94
4H72-bH
  interaction score: -1.58
4H2697-bH
  interaction score: -0.653
4H607-bH
  interaction score: -0.13
4H1845-bH
  interaction score: -0.792
4H797-bH
  interaction score: -0.464
4H883-bH
  interaction score: -0.565
4H370-bH
  interaction score: -1.73
O9-bN
  interaction score: -3.43
4H2610-bH
  interaction score: 0.178
4H4001-bH
  interaction score: -0.331
4H2667-bH
  interaction score: -0.433

## DKNQELKKKIEELKRKIWELKKENQELER [P12A-bH]
P5A-bH
  interaction score: -2.21
P6A-bH
  interaction score: 0.389
P9A-bH
  interaction score: 0.667
P4A-bH
  interaction score: -0.357
P8A-bH
  interaction score: 0.274
P3A-bH
  interaction score: 1.64
P7A-bH
  interaction score: -0.514
P12A-bH
  interaction score: -0.588
P2A-bH
  interaction score: -1.23
P1A-bH
  interaction score: 0.256

## DKNQQLKQENQELEQKIQELKWKIQELKQ [P10A-bN]
P6A-bN
  interaction score: -0.522
P1A-bN
  interaction score: -0.0109
P7A-bN
  interaction score: 0.528
P5A-bN
  interaction score: -0.55
P11A-bN
  interaction score: 0.197
P12A-bN
  interaction score: -0.334
P2A-bN
  interaction score: -1.29
P8A-bN
  interaction score: -1.93
P4A-bN
  interaction score: 0
P3A-bN
  interaction score: -2.58

## DENQQLEQEIQELEQEIQELEWKNQELKQ [P11A-bN]
P6A-bN
  interaction score: -0.465
P1A-bN
  interaction score: -0.501
P7A-bN
  interaction score: -0.868
P5A-bN
  interaction score: -1.3
P11A-bN
  interaction score: 0.856
P12A-bN
  interaction score: 0.458
P9A-bN
  interaction score: 0.422
P2A-bN
  interaction score: 0.436
P8A-bN
  interaction score: 0.54
P4A-bN
  interaction score: 1.12
P3A-bN
  interaction score: 0.143

## DEIAQLKQKNAELEQEIAELKWENAQLKQ [4H908-bA]
4H918-bA
  interaction score: 0.429
P11A-bN
  interaction score: 1.22
4H967-bA
  interaction score: -0.532
4H953-bA
  interaction score: -0.801
4H908-bA
  interaction score: 0.539
